Results published in CN113912731A (SHENGHE CHINA BIO PHARMACY CO LTD, dated 2022).

T1: 人FGL1-his蛋白(Sinobio;Cat:13484-H08B) (human, UniProt Q08830 23-312)
T1 construct: Bought protein; also called 重组人FGL1-his蛋白; not shown: his tag
T1 sequence (looked up): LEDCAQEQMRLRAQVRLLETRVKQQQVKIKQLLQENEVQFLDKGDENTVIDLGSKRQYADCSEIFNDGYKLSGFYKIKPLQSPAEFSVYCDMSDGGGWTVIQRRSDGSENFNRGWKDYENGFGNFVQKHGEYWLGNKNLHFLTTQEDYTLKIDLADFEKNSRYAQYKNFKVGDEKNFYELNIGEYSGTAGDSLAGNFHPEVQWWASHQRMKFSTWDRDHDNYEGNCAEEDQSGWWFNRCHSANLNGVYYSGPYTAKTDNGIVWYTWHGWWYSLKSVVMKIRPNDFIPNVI

T2: 鼠FGL1-his (mouse, UniProt Q71KU9 23-314, limits assumed)
T2 construct: also called 小鼠FGL1蛋白; 鼠FGL1蛋白; not shown: his tag
T2 sequence (looked up): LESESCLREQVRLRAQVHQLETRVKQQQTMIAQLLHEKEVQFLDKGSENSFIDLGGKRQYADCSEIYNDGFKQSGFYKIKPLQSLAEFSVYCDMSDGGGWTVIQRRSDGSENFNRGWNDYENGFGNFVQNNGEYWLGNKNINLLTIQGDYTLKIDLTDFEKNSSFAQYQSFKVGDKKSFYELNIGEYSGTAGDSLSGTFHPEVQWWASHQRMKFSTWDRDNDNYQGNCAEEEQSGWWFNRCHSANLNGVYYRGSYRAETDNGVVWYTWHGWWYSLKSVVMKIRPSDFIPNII


Key:
[1] = biological target: T1, 人FGL1-his蛋白(Sinobio;Cat:13484-H08B); assay: ELISA, plate coated with human FGL1-his
[2] = biological target: T2, 鼠FGL1-his; assay: human/mouse cross-reactivity (ELISA of Example 8)

| Binder | binding result [1] | binding result [2] |
| --- | --- | --- |
| SH-06 (antibody, V domains shown, From the human natural phage display library; also called 抗体SH-06; not shown: 轻链恒定区) VH: QVQLQESGPGLVKPSQTLSLTCTVSGGSISSGGYYWSWIRQHPGKGLEWIGYIYYSGSTYYNPSLKSRVTISVDTSKNQFSLKLSSVTAADTAVYYCARDSVMGYAPRVRAFDIWGQGTMVTVSS VL: QSALTQPPSASGTPGQRVTISCSGSSSNIGTNTVNWYQQLPGTAPKLLIYSTNQRPSGVPDRFSGSKSGTSASLAISGLQSEDEADYYCSSWAGDLNGRLFGGGTKLTVL | binds |  |
| SH-07 (antibody, V domains shown, From the human natural phage display library; also called 抗体SH-07; not shown: 轻链恒定区) VH: not shown VL: DIQMIQSPSSLSASVGDRVTITCRASQSISHYLNWYQQKPGKVPKLLIYAASSLQSGVPSRFSGSGSGTDFTLTISSLQPEDFATYYCQQSYSTPSFGQGTKVEIK | binds | binds |
| SH-05 (antibody, V domains shown, From the human natural phage display library; also called 抗体SH-05; not shown: 轻链恒定区) VH: EVQLVQSGGVVVQPGGSLRLSCAASGFTFDDYAMHWVRQAPGKGLEWVSLISWDGGSTYYADSVKGRFTISRDNSKNTLYLQMNSLRAEDTAVYYCARNSGRRNWFDPWGQGTLVTVSS VL: not shown | binds |  |
| SH-03 (antibody, V domains shown, From hybridoma; also called 抗体SH-03; not shown: 轻链恒定区) VH: QVQLQQSGPELVKPGASVKISCKASGYTFTDYYINWLRQKPGQGLEWIGWIYPGSANTNYNEKFKGKAILTVDTSSSTAYMQLSSLTSEDTAVYFCARWLLRSAYWGQGTLVTVSA VL: DIVLSQSPAILSASPGEKVTMTCRASSSVSYMYWYQQKPGSSPKPWIYATSNLASGVPARFSGSGSGTSYSLTISRVEAEDAATYYCQQWSSNPYTFGGGTKLEIK | binds |  |
| SH-08 (antibody, V domains shown, From the human natural phage display library; also called 抗体SH-08; not shown: 轻链恒定区) VH: EVQLVESGGGLVKPGGSLRLSCAASGFTFSSYSMNWVRQAPGKGLEWVSSISSSSSYIYYADSVKGRFTISRDNAKNSLYLQMNSLRAEDTAVYYCARDFPSPSGGRGFRPTTARGYGMDVWGQGTTVTVSS VL: QSALTQPASVSGSPGQSIIISCTGSKSDIGTYNFVSWYQQHPGKAPNVIIYNVNKRPSGVSDRFSGSKSGNTASLTISGLQAEDEADFYCSSYTSSGTHVFGSGTKVIVL | binds |  |
| SH-10 (antibody, human IgG1, V domains shown, Heavy-chain-only antibody from the alpaca immune phage library; expressed in CHO cells; also called 抗体SH-10) VH: EVQLVESGGGLVQPGGSLRLSCAASGDTLDYYAIGWFRQAPGKEREGVSCIRSSGSGPHYSDSVQDRFIISRDNARGTVYLQMNSLKPEDTAVYYCAATEGFYCSPTLSQGEYDYWGQGTQVTVSS | binds |  |
| SH-04 (antibody, V domains shown, From hybridoma; also called 抗体SH-04; not shown: 轻链恒定区) VH: EVQLQQSGPELEKPGASVKMSCKASGYTFTRYWMHWVKQRPGQGLEWIGMIDPSDSYTSYNQKFKGKATLTVDTSSSTAYMQLSSLTSEDSAVYYCTLRPGLDYWGQGTTLTVSS VL: DIVMTQSQKFMSTSVGDRVSVTCKASQNVGTNVAWYQQKPGQSPKALIYSASYRYSGVPDRFTGSGSGTDFTLTISNVQSEDLAEYFCQQYNSYPLTFGGGTKLEIK | binds |  |
| SH-09 (antibody, human IgG1, V domains shown, Heavy-chain-only antibody from the alpaca immune phage library; expressed in CHO cells; also called 抗体SH-09) VH: QVQLVESGGGLVQPGGSLRLSCTASGFNLDFYTIGWFLQAPGKEREGVSCISNSGGSSVYADSVKGRFTISRDSAKNTVYLQMNSLDPEDTAVYYCAALAGRGCMRSPITTDEYDSWGQGTQVTVSS | binds |  |
